For three substances, maximal actin-activated ATPase rate of FLMyo6 (T888D.Q892E.V903D) upon GIPC1 addition (loss of gating), stoichiometry N (CaM per heavy chain) and decrease in maximal actin-activated ATPase activity per Head of FLMyo6 (WT, no-insert isoform) upon addition of GIPC1, compared to monomeric MD^Ins2 (gating in a dimer) results are on record in paper PMC10593786.

For test [1], the target named is FLMyo6 (T888D.Q892E.V903D) (human) (UniProt Q9UM54).
The target in test [2] is Jo-Myo6-In heavy chain (Streptococcus pneumoniae | human). Briefly: co-purification, SDS-PAGE; CaM co-expressed with Jo-Myo6-In in Sf9 cells, purified by the Flag tag of the heavy chain, read by SDS-PAGE.
Test [3] has as its target full-length wild-type Myo6, small insert isoform (FLMyo6 SI (WT)) (human) (UniProt Q9UM54).

Take “FLMyo6 (T888D.Q892E.V903D) (from UniProt Q9UM54-5 1-1253; P0DP23 1-149) (complex)”: in test [1], the maximal actin-activated ATPase rate of FLMyo6 (T888D.Q892E.V903D) upon GIPC1 addition (loss of gating) stood at 2 fold. Regarding “calmodulin (CaM) (from UniProt P0DP23 1-149) (natural protein)”, the stoichiometry N (CaM per heavy chain) in test [2] came to 2. In turn, “full-length wild-type Myo6, small insert isoform (FLMyo6 SI (WT)) (from UniProt Q9UM54-2 1-1262; P0DP23 1-149) (complex)” displayed a decrease in maximal actin-activated ATPase activity per Head of FLMyo6 (WT, no-insert isoform) upon addition of GIPC1, compared to monomeric MD^Ins2 (gating in a dimer) in test [3] of 50%.
